Assay results: patent publication US20240392013A1, “IL1RAP ANTIBODIES AND USES THEREOF” (STELEXIS THERAPEUTICS, LLC, priority 2021, published 2024)
Changes are numbered by the printed parent chain.

T1: hIL1RAP (Homo sapiens, UniProt Q9NPH3)
T1 sequence (Q9NPH3 21-367 limits assumed): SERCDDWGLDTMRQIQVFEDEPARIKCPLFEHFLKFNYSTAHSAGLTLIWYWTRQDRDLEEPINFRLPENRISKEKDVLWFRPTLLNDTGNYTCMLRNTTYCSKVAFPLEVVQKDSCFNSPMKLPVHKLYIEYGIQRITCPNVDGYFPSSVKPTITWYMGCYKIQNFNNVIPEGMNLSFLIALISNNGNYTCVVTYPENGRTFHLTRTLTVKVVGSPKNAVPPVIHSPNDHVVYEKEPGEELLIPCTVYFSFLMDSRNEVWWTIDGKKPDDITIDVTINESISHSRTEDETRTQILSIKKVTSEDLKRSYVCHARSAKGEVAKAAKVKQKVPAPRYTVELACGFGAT

B1: 74804_25H09A: anti-IL1RAP mAb; VH SEQ ID NO:9, VL SEQ ID NO:25, κ light chain (antibody, V domains shown)
VH: QVQLVQSGAEVKKPGSSVKVSCKASGDTFSNYAITWVRQAPGQGLEWIVGFSPIFGTANYAQKFQGRVTITADKSTSTAYMELSSLISEDTAVYYCAWGSGNFNWFDPWGQGTLVTVSS
VL: AIRMTQSPSSFSASTGDRVTITCRASQGISSYLAWYQQKPGKAPKLLIYAASTLQSGVPSRFSGSGSGTDFTLTISSLQSEDFATYYCQQYYSYPLTFGGGTKVEIK
modifications: 74804_25H09A VH; 74804_25H09A VL
B2: 74804_05B24A: anti-IL1RAP mAb; VH SEQ ID NO:10, VL SEQ ID NO:26, κ light chain (antibody, V domains shown)
VH: EVQLVDSGGGLVKPGGSLRLSCAATGFTFSNVWMSWVRQGSGKGLEWVGRIKSKTDGGTIDYAAPVKGRFTISRDDPKNTLYLQMNSLKTEDTAVYYCTTGELLGFDYWGQGTLVTVSS
VL: DIVMTQSPLSLPVTPGEPASISCRSGQSLLHNNGFNCLAWYLQKPGQSPQLLIYLGSNRASGVPDRFSGSGSGTDFTLKISRVEAEDVGVFYCMQTLQTPITFGQGTRLEIK
modifications: 74804_05B24A VH; 74804_05B24A VL
B3: 74804_07K10A: anti-IL1RAP mAb; VH SEQ ID NO:5, VL SEQ ID NO:22, κ light chain (antibody, V domains shown)
VH: QVQLLQSGAEVKKPGSSVKVSCRASGGTFSIYAIDWVRQAPGQGLEWMGGIIPISGTENSAQNFQDRITITADKSTNTAYMELSSLRSEDTAVYYCARNGATSDAFDIWGQGTMVTVSS
VL: EIVLTQSPGTLSLSPGERATLSCRASLSVSSNYLAWFQQRPGQAPRLLIYGVSRRATGIPDRFSGSGSGTDFTLTISRLEPEDFAVYYCQQYGSSPLTFGGGTKVEIK
modifications: 74804_07K10A VH; 74804_07K10A VL, 74804_29D13A VL and 74804_43F04A VL
B4: 74804_29D13A: anti-IL1RAP mAb; VH SEQ ID NO:6, VL SEQ ID NO:22, κ light chain (antibody, V domains shown)
VH: B3 VH with R23K, S55F, E58A, N63K, D66G, I68V, N77S, I108M
VL: B3 VL
modifications: 74804_12A21B VH and 74804_29D13A VH; 74804_07K10A VL, 74804_29D13A VL and 74804_43F04A VL
B5: 74804_51C10A: anti-IL1RAP mAb; VH SEQ ID NO:8, VL SEQ ID NO:24, κ light chain (antibody, V domains shown)
VH: B3 VH with R23K, S30N, S55F, E58A, N63K, D66G, I68V
VL: B3 VL with L27Q
modifications: 74804_51C10A VH; 74804_51C10A VL
B6: 74804_27I24A: anti-IL1RAP mAb; VH SEQ ID NO:13, VL SEQ ID NO:29, λ light chain (antibody, V domains shown)
VH: EVQLVESGGGLVKPGGSLRLSCAASGFTFITYSMNWVRQAPGKGLEWVSSISSISSYIYYADSVKGRFTISRDNAKNSLYLQMDSLRAEDSAVYYCAREGIVGPTGYFDSWGQGTLVTVSS
VL: QSVLTQPPSVSAAPGQKVTISCSGSSSNIGNHYVSWYQQLPGTAPKLLIYDNNKRPSGIPDRFSGSKSGTSATLGITGLQTGDEADYYCGTWDSRLSAYWVFGGGTKLTVL
modifications: 74804_27I24A VH; 74804_27I24A VL
B7: 74804_18L05A: anti-IL1RAP mAb; VH SEQ ID NO:4, VL SEQ ID NO:21, κ light chain (antibody, V domains shown)
VH: QVQLVQSGAEVKKPGASVKVSCKTSGYTFTSCCMHWVRQAPGQGLEWMGIINPSVGSTSYAQKFQGIVTMTRDTSTSTVYMELSSLRSEDTAVYYCAVDSSGSRYYYGMDVWGQGTTVTVSS
VL: EIVMTQSPATLSVSPGERATLSCRASQSVRSNLAWYQQRPGQAPRLLIYGTSTRATGIPARFSGSGSGTEFTLTISSLQSEDFAVYYCQQYNYWPYTFGQGTKLEIK
modifications: 74804_18L05A VH; 74804_18L05A VL

Biological target: T1, hIL1RAP
Experiment: Kinetics of IL1RAP mAbs by Octet, human IL1RAP
Type: binding
Design: extracellular domain His-tagged, Cat #10121-H08H; His; purchased Sino Biological lot MB08MA1301 (catalogue number not given)
Settings: not given
Procedure: (§1) Antibodies were diluted in kinetics buffer (0.1% BSA, 0.02% Tween-20 and 0.05% NaN3 in PBS) and loaded onto 16 channel anti-mouse IgG Fc capture sensors (AMC, Cat #2001073; Sartorius, Göttingen, Germany). Human, huIL1RAP-His (Sino Biological, lot: MB08MA1301), and monkey, cyIL1RAP-His (Lake Pharma, NY, USA; lot:16205819371) proteins were titrated starting from the highest concentration of 100 nM and followed by 50 nM and 25 nM. Purified antibodies were loaded at 5 μg/ml in kinetics buffer. The experimental parameters selected to determine the kinetic constants were Baseline for 60 s, Loading of antibody to sensor for 180 s, Association of analyte to antibody for 120 s, Dissociation for 1200 s and Regeneration in 10 mM Glycine pH 1.7 for 4×30 s.
(§2) Regeneration cycle tracking was selected for 12 cycles. Binding to human and cynomolgus IL1RAP was measured and KD (M) kinetics were calculated. Also, the disassociation rate (Kdis) (1/s) and association rate (Kon) (1/Ms) kinetics were calculated (data not shown).

| hIL1RAP kdis(1/s) | hIL1RAP kon(1/Ms) | Molecule |
| --- | --- | --- |
| 0.000337 s⁻¹ | 154500 M⁻¹ s⁻¹ | B1 |
| 0.000491 s⁻¹ | 294400 M⁻¹ s⁻¹ | B2 |
| 0.000234 s⁻¹ | 392100 M⁻¹ s⁻¹ | B3 |
| 0.000361 s⁻¹ | 336100 M⁻¹ s⁻¹ | B4 |
| 0.000301 s⁻¹ | 343500 M⁻¹ s⁻¹ | B5 |
| 0.000747 s⁻¹ | 350400 M⁻¹ s⁻¹ | B6 |
| 0.00037 s⁻¹ | 227800 M⁻¹ s⁻¹ | B7 |

System: patient-derived AML samples
Experiment: Cell viability of patient-derived AML samples, CellTiter-Glo
Type: cell-based, human
Settings: 15 patient-derived AML samples; 0.1-100 nM, 6 days
Procedure: Primary patient-derived AML cells collected using leukapheresis or peripheral blood draw were selected based on expression levels of IL1RAP, IL1R1 and IL1RL1. On study day 0, cell viability was calculated, and cells were seeded at a density of 20,000 viable cells/well in 96-well plates. Cells were treated on Day 0 with IL1RAP monoclonal antibodies at a concentration of 100 nM followed by 5-fold serial dilutions. Cytarabine treatment (5 μM) was used as a positive control. Plates were kept at 37° C./5% CO2 in humified incubator and media was not changed during the duration of the assay. On Day 6, plates were removed from incubator and equilibrated to room temperature for up to 30 minutes. Then CellTiter-Glo was added to wells (100 μl) and plates were mixed for 2 minutes on plate rocker, followed by 10 minutes incubation at room temperature. Luminescent signal was recorded using Tecan plate reader and IC50s were calculated.

| Molecule | Inhibition of viability |
| --- | --- |
| B2 | inhibition of viability of patient-derived AML samples |
| B6 | inhibition of viability of patient-derived AML samples |

System: IL33-induced NFκB activity
Experiment: HEK-BlueIL33 NFκB Reporter Assay
Type: cell-based, human
Settings: nM range, read-out: IC50, inhibition of IL33-induced NFκB activity
Excerpt: HEK-Blue IL33 (Invivogen, Cat #hkb-hil33) cell line was used to monitor NFκB activity upon stimulation with IL33 cytokine. The secreted embryonic alkaline phosphatase reporter gene (SEAP) is inducible expressed under the control of IFN-β minimal promoter fused to NFκB/AP-1. HEK-BlueIL33 cells were also generated upon stable transfection with human IL1RL1 (ST2) gene. Specificity to IL33 cytokine was achieved by blockage of TNF-α and IL1 response. Cells are maintained in the presence of hygromycin (200 μg/ml), zeocin (100 μg/ml) and blasticidin (10 μg/ml).
(§3) For the functional assay, cells were plated at a density of 5×10^4 cells/well in 96-well plates. Cells were treated with each antibody at the highest concentration of 200 μg/ml followed by seven serial 1:3 dilutions and incubated for 45 minutes at 37° C./5% CO^2 in humified incubator. Cells were then stimulated with IL33 (12 μM) and incubated overnight at 37° C./5% CO2 in humified incubator. Every treatment was conducted in triplicates. Following, supernatants from each well were mixed with Quanti-Blue substrate (Invivogen, Cat #rep-qb1) according to manufacturer's recommendations and secreted SEAP was measured using spectrophotometer at 650 nm.

| IC50 | Molecule |
| --- | --- |
| 6.55 nM | B1 |
| 2.72 nM | B2 |
| 6.62 nM | B3 |
| 8.75 nM | B4 |
| 13 nM | B5 |
| 8.31 nM | B6 |
| 4.81 nM | B7 |

System: cyIL1RAP
Experiment: Kinetics of IL1RAP mAbs by Octet, cynomolgus IL1RAP
Type: binding
Settings: not given
Procedure: as §1, §2

| Molecule | cyIL1RAP kdis(1/s) | cyIL1RAP kon(1/Ms) |
| --- | --- | --- |
| B1 | 0.000297 s⁻¹ | 142000 M⁻¹ s⁻¹ |
| B2 | 0.000563 s⁻¹ | 267900 M⁻¹ s⁻¹ |
| B3 | 0.000283 s⁻¹ | 376800 M⁻¹ s⁻¹ |
| B4 | 0.00065 s⁻¹ | 329600 M⁻¹ s⁻¹ |
| B5 | 0.000459 s⁻¹ | 325600 M⁻¹ s⁻¹ |
| B6 | 0.001071 s⁻¹ | 379500 M⁻¹ s⁻¹ |
| B7 | 0.000954 s⁻¹ | 221100 M⁻¹ s⁻¹ |

System: IL1-induced NFκB activity
Experiment: HEK-BlueIL1β NFκB Reporter Assay
Type: cell-based
Settings: nM range, read-out: IC50, inhibition of IL1-induced NFκB activity
Procedure: The HEK-Blue IL1β (Invivogen, Cat #hkb-il1b) cell line was used to monitor NFκB activity upon stimulation with IL1β cytokine. In this cell line the secreted embryonic alkaline phosphatase reporter gene (SEAP) is inducibly expressed under the control of IFN-β minimal promoter fused to NFκB/AP-1. Specificity to IL1β cytokine was achieved by blockage of TNF-α response. The cells were maintained in the presence of hygromycin (200 μg/ml) and zeocin (100 μg/ml).
as §3, with “CO2” for “CO^2”, “IL1β” for “IL33”, “(Invivogen, CA USA;” for “(Invivogen,”

| IC50 | Molecule |
| --- | --- |
| 1.77 nM | B1 |
| 0.446 nM | B2 |
| 3.19 nM | B3 |
| 1.85 nM | B4 |
| 2.5 nM | B5 |
| 1.96 nM | B6 |
| 1.73 nM | B7 |
